Data taken from patent CN116761824A (SHANGHAI YAOMING HELIAN BIOTECHNOLOGY CO LTD, dated 2023).
Values belong to the binder of their own block, whether it stands above or below them.

Target: T1, 人Trop2 (human, UniProt P09758 27-323)
T1 construct: whole, on cells; also called 肿瘤相关钙信号转导器2; TACSTD2
T1 sequence (looked up): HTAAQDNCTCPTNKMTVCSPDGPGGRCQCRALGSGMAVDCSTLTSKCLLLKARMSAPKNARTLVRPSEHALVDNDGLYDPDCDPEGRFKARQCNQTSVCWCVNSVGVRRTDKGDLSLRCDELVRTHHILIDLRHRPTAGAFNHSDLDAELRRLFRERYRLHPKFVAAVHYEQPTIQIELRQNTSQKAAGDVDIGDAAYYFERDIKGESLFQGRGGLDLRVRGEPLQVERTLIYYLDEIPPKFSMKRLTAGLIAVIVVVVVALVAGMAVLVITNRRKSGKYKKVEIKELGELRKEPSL
Test: FACS on tumour cells (MDA-MB-468, HCC827, BxPC-3), Alexa647 goat anti-human IgG Fc detection

binding result: binds
B1: 抗-Trop2抗体886-36 (antibody, V domains shown)
VH: QVQLQQSGSELKKPGASVKVSCKASGYTFTNYGMNWVKQAPGQGLKWMGWINTYTGEPTYTDDFKGRFAFSLDTSVSTAYLQISSLKADDTAVYFCARGGFGSSYWYFDVWGQGSLVTVSS
VL: DIQLTQSPSSLSASVGDRVSITCKASQDVSIAVAWYQQKPGKAPKLLIYSASYRYTGVPDRFSGSGSGTDFTLTISSLQPEDFAVYYCQQHYITPLTFGAGTKVEIKR
notes: also called WBP886-36

binding result: binds
B2: 886-36-MMAE (antibody, V domains shown)
VH: B1 VH
VL: B1 VL
modifications: MC-vc-PAB-MMAE on cysteines freed by partial TCEP reduction of interchain disulfides; mostly in the Fab domain; mainly DAR4 (82.3%)
